Data on 3 proteins can be found in article PMC3017832, “Molecular analysis of phosphomannomutase (PMM) genes reveals a unique PMM duplication event in diverse Triticeae species and the main PMM isozymes in bread wheat tissues” (BMC Plant Biology, 2010).

Holding throughout (experiment): spectrophotometric PMM assay (as in earlier work)
Type in all cases: biochemical, Triticum aestivum
Settings in all cases: average of three experiments; temperature and pH not given

Substrate in data set [1]: O=P(O)(O)O[C@H]1O[C@H](CO)[C@@H](O)[C@H](O)[C@@H]1O
An excerpt: spectrophotometric PMM assay (as in earlier work) on TaPMM-D2 | The average Km (mM, mannose-1-phosphate) values calculated for recombinant A1, D1 and D2 proteins

Substrate in data set [2]: O=P(O)(O)O[C@H]1O[C@H](CO)[C@@H](O)[C@H](O)[C@@H]1O
An excerpt:
spectrophotometric PMM assay (as in earlier work) on TaPMM-A1 | The average Km (mM, mannose-1-phosphate) values calculated for recombinant A1, D1 and D2 proteins
This is another data set of the same source.

Substrate in data set [3]: O=P(O)(O)O[C@H]1O[C@H](CO)[C@@H](O)[C@H](O)[C@@H]1O
An excerpt: spectrophotometric PMM assay (as in earlier work) on TaPMM-D1 | The average Km (mM, mannose-1-phosphate) values calculated for recombinant A1, D1 and D2 proteins
This is another data set of the same source.

B1: TaPMM-D2 (Triticum aestivum) (protein)
chain: MVASAARKNAGVLALFDVDGTLTAPRKEVTPEMLEFMKRLRENVTVGVVGGSDLVKISEQLGKSVITDYDYVFSENGLVAHKDGKLIGTQSLKTYLGDDQLKEFINFTLHYIADLDIPIKRGTFIEFRSGMINVSPIGRNCSQEERDDFEKYDKVHNVRPKMVSMLREKFAHLNLTFSIGGQISFDVFPHGWDKTYCLRYLDEFKEIHFFGDKTYKGGNDHEIFESDRTVGHTVTSPDDTVQQCRSIFLSK
Broadly, the Km is the concentration of substrate that gives half-maximal velocity. On to B1, for which the Km in data set [1] stood at 480 ± 20 µM.

B2: TaPMM-A1 (Triticum aestivum) (protein)
chain: MAAARKDAGVLALFDVDGTLTAPRKEVTPEMLEFMKRLRENVTVGVVGGSDLVKISEQLGKSVITDYDYVFSENGLVAHKDGKLIGTQSLKTYLGDDQLKEFINFTLHYIADLDIPIKRGTFIEFRSGMINVSPIGRNCSQEERDDFEKYDKVHNVRPKMVSVLREKFAHLNLTFSIGGQISFDVFPQGWDKTYCLRYLEEFKEIHFFGDKTYKGGNDHEIFESDRTVGHTVTSPNDTVQQCKSIFLSE
Regarding B2, in data set [2], the Km stood at 460 ± 20 µM.

B3: TaPMM-D1 (Triticum aestivum) (protein)
chain: MAAAAAARKTAGVLALFDVDGTLTAPRKEVTPEMLEFMKRLRENVTVGVVGGSDLVKISEQLGKSVITDYDYVFSENGLVAHKDGKLIGTQSLKTYLGDDQLKEFINFTLHYIADLDIPIKRGTFIEFRSGMINVSPIGRNCSQEERDDFEKYDKVHNVRPKMVSVLREKFAHLNLTFSIGGQISFDVFPQGWDKTYCLRYLEEFKEIHFFGDKTYKGGNDHEIFESERTVGHTVTSPNDTVQQCKSIFLSE
Consider B3, for which the Km in data set [3] turned out to be 400 ± 20 µM.
